Reference: publication doi:10.1101/2024.05.09.593331
pKd: −log10 of the molar value.

Test system: His6-Ubl1 in complex with N;Nucleocapsid (N) protein (SARS-CoV-2;SARS-CoV-2)
Assay: EMSA
Conditions: 50 mM Tris-HCl pH 8, 150 mM NaCl, 5 mM CaCl2 ([…]

5' UTR 1-245 ssRNA
pKd: 8.21
